The values below come from publication PMC12531337.

This data set addresses T1, ZEB2 ZnF8 peptide (UniProt O60315 1055-1076).
T1 chain: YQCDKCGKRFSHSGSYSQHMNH
In words: NMR.

B1: ZnF-binding DNA (E2 box) (dsDNA)
DNA 1: GTAATCTGGGCCACCTGCCTGGGAGGA
DNA 2: TCCTCCCAGGCAGGTGGCCCAGATTAC
On to B1, for which the binding result is on record as “binds”.
